The values that follow come from paper PMC8494329.

This experiment deals with 16055 NFL trimer (native flexibly linked HIV-1 Env stabilized trimer, clade C strain 16055) (HIV-1, clade C, strain 16055).

B1: VD20.5A4 Fab (Fab, V domains shown)
VH: QVQLQESGPGLVKPSETLSLTCAVSGASISSNYWSWIRQPPGKGLEWIGRIYDPTDSTDYNPSLESRATISKDTSKNHFSLTLSSVTAADTAVYFCARGLWSGYFFWFDVWGPGVLVTVSS
VL: DIQMTQSPSSLSASVGDSVTVTCRASQGIDKELSWYQQKPGKAPTLLIYAASSLQTGVSSRFSGSGSGTDYTLTISSLQPEDVATYYCLQDYATPYSFGQGTKVEIK
B1: the IC50 of neutralisation of the autologous 16055 pseudovirus (TZM-bl cells); the mAb on Env of the virus is 0.005 μg/mL.

B2: D11A.B5 Fab (Fab, V domains shown)
VH: HLQLQESGPGLVKPSETLSLTCAVSGGSSSDYWWSWIRQPPGKGLEWIGRIDSIGNTYYNPSLRSRVTLSVDTSKNQFSLELTSVTAADTAVYYCARPYCAIGRCYESWGQGVLVTVSS
VL: EVVFTQPHSVSGSPGQTVTISCTRTSGSIDSEYVQWYQQRPGSAPTIVIYRDNQRPSGVPDRFSGSIDSSSNSASLAISGLKSEDEADYYCQSSDDSYNWVFGGGTRLTVL
Molecule B2 showed an IC50 of neutralisation of the autologous 16055 pseudovirus (TZM-bl cells); the mAb on Env of the virus of 3.68 μg/mL.
